B1: BTK as GST fusion protein (protein)
chain: MAAVILESIFLKRSQQKKKTSPLNFKKRLFLLTVHKLSYYEYDFERGRRGSKKGSIDVEKITCVETVVPEKNPPPERQIPRRGEESSEMEQISIIERFPYPFQVVYDEGPLYVFSPTEELRKRWIHQLKNVIRYNSDLVQKYHPCFWIDGQYLCCSQTAKNAMGCQILENRNGSLKPGSSHRKTKKPLPPTPEEDQILKKPLPPEPAAAPVSTSELKKVVALYDYMPMNANDLQLRKGDEYFILEESNLPWWRARDKNGQEGYIPSNYVTEAEDSIEMYEWYSKHMTRSQAEQLLKQEGKEGGFIVRDSSKAGKYTVSVFAKSTGDPQGVIRHYVVCSTPQSQYYLAEKHLFSTIPELINYHQHNSAGLISRLKYPVSQQNKNAPSTAGLGYGSWEIDPKDLTFLKELGTGQFGVVKYGKWRGQYDVAIKMIKEGSMSEDEFIEEAKVMMNLSHEKLVQLYGVCTKQRPIFIITEYMANGCLLNYLREMRHRFQTQQLLEMCKDVCEAMEYLESKQFLHRDLAARNCLVNDQGVVKVSDFGLSRYVLDDEYTSSVGSKFPVRWSPPEVLMYSKFSSKSDIWAFGVLMWEIYSLGKMPYERFTNSETAEHIAQGLRLYRPHLASEKVYTIMYSCWHEKADERPTFKILLSNILDVMDEES
B2: His6-ALK 1090-1416 (protein)
chain: HHHHHHTDYNPNYCFAGKTSSISDLKEVPRKNITLIRGLGHGAFGEVYEGQVSGMPNDPSPLQVAVKTLPEVCSEQDELDFLMEALIISKFNHQNIVRCIGVSLQSLPRFILLELMAGGDLKSFLRETRPRPSQPSSLAMLDLLHVARDIACGCQYLEENHFIHRDIAARNCLLTCPGPGRVAKIGDFGMARDIYRASYYRKGGCAMLPVKWMPPEAFMEGIFTSKTDTWSFGVLLWEIFSLGYMPYPSKSNQEVLEFVTSGGRMDPPKNCPGPVYRIMTQCWQHQPEDRPNFAIILERIEYCTQDPDVINTALPIEYGPLVEEEEKVPVRPK
B3: GST-FLT3 564-993 (intracellular portion of human FLT3 fused to GST) (protein)
chain: HKYKKQFRYESQLQMVQVTGSSDNEYFYVDFREYEYDLKWEFPRENLEFGKVLGSGAFGKVMNATAYGISKTGVSIQVAVKMLKEKADSSEREALMSELKMMTQLGSHENIVNLLGACTLSGPIYLIFEYCCYGDLLNYLRSKREKFHRTWTEIFKEHNFSFYPTFQSHPNSSMPGSREVQIHPDSDQISGLHGNSFHSEDEIEYENQKRLEEEEDLNVLTFEDLLCFAYQVAKGMEFLEFKSCVHRDLAARNVLVTHGKVVKICDFGLARDIMSDSNYVVRGNARLPVKWMAPESLFEGIYTIKSDVWSYGILLWEIFSLGVNPYPGIPVDANFYKLIQNGFKMDQPFYATEEIYIIMQSCWAFDSRKRPSFPNLTSFLGCQLADAEEAMYQNVDGRVSECPHTYQNRRPFSREMDLGLLSPQAQVEDS

Legend:
[1] = target: T1, Peptide 10: EDPIYVTLEGGKKK (version of peptide 2 used for the kinetic experiments)
T1 chain: EDPIYVTLEGGKKK

[2] = target: T2, Peptide 11: DEAIYATVAGGKKK (version of peptide 5 used for the kinetic experiments)
T2 chain: DEAIYATVAGGKKK

Row | Protein | 2/5 kcat/Km ratio (peptide 2 against peptide 5) [1] | Km [1] | kcat [1] | kcat/Km [1] | Km [2] | kcat [2] | kcat/Km [2]
1 | B1 | 0.31 | 64 µM | 0.061 s⁻¹ | 970 M⁻¹ s⁻¹ | 84 µM | 0.26 s⁻¹ | 3170 M⁻¹ s⁻¹
2 | B2 | 1.23 | > 200 µM | > 0.02 s⁻¹ | 95 M⁻¹ s⁻¹ | > 200 µM | > 0.02 s⁻¹ | 79 M⁻¹ s⁻¹
3 | B3 | – | 41 µM | 0.013 s⁻¹ | 304 M⁻¹ s⁻¹ | – | – | –
